Experimental findings from the supplement of paper PMC9112550, “Optimization of the antimicrobial peptide Bac7 by deep mutational scanning” (BMC Biology, 2022) are described below.

The series deals with Escherichia coli TOP10. Kind of series: shrunken log2 fold change of peptide-encoding DNA abundance (4.5 h post-induction vs induction); higher = less antimicrobial activity (less host growth inhibition). As to conditions: time post-induction: 4.5 h; library: site-saturation at positions 5, 18, 19, 20.
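Also: peptides expressed intracellularly from a pBAD plasmid library in pooled LB shake-flask culture, induced with 0.3% L-arabinose, DNA abundance read by NGS, three biological replicates, DESeq2 with apeglm shrinkage.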

Consider RRIRLRPPRLPRPRPRPIDSPRP, for which the “shrunken log2 fold change” value is -0.0384.
As for RRIRKRPPRLPRPRPRPRSCPRP, the “shrunken log2 fold change” value worked out at 0.239.
To RRIRYRPPRLPRPRPRPNIVPRP belongs -0.224; to RRIRFRPPRLPRPRPRPISNPRP, -0.48; to RRIRPRPPRLPRPRPRPWFVPRP, -0.25.
Turning to RRIRQRPPRLPRPRPRPATMPRP, the “shrunken log2 fold change” value is -0.0699.
The figure for RRIRTRPPRLPRPRPRPQDLPRP is -0.0848.
To RRIRTRPPRLPRPRPRPEHDPRP belongs -0.0214.
With RRIRWRPPRLPRPRPRPKNRPRP, the “shrunken log2 fold change” value was 0.017.
The figure for RRIRFRPPRLPRPRPRPYFYPRP is -0.808; for RRIRERPPRLPRPRPRPEYKPRP it is -0.471; for RRIRWRPPRLPRPRPRPAEIPRP it is 0.107.
To RRIRHRPPRLPRPRPRPLIQPRP belongs -0.0847.
RRIRYRPPRLPRPRPRPIMNPRP: the “shrunken log2 fold change” value was -0.123.
In the case of RRIRCRPPRLPRPRPRPHSTPRP, the “shrunken log2 fold change” value is -0.698.
As for RRIRPRPPRLPRPRPRPFCHPRP, the “shrunken log2 fold change” value was -0.00162.
For the sequence RRIRNRPPRLPRPRPRPAPHPRP, the “shrunken log2 fold change” value amounted to 0.227.
For RRIRHRPPRLPRPRPRPMWPPRP, the “shrunken log2 fold change” value was determined as 0.0906.
The figure for RRIRRRPPRLPRPRPRPICWPRP is 0.388; for RRIRPRPPRLPRPRPRPMYNPRP it is -0.639; for RRIRPRPPRLPRPRPRPVMLPRP it is -0.0771.
To RRIRMRPPRLPRPRPRPRIGPRP belongs 0.396; to RRIRGRPPRLPRPRPRPPWEPRP, 0.528; to RRIRQRPPRLPRPRPRPEFSPRP, 0.362.
In the case of RRIRFRPPRLPRPRPRPHKDPRP, the “shrunken log2 fold change” value is -0.709.
As for RRIRCRPPRLPRPRPRPNLIPRP, the “shrunken log2 fold change” value was -0.872.
To RRIRLRPPRLPRPRPRPDYPPRP belongs -0.307.
The figure for RRIRMRPPRLPRPRPRPTVAPRP is 0.269; for RRIRARPPRLPRPRPRPIIKPRP it is -0.09.
As to RRIRVRPPRLPRPRPRPPATPRP, the “shrunken log2 fold change” value amounted to 0.18.
In the case of RRIRTRPPRLPRPRPRPCDSPRP, the “shrunken log2 fold change” value was -0.0585.
To RRIRGRPPRLPRPRPRPNSSPRP belongs -0.00499; to RRIRERPPRLPRPRPRPCGLPRP, -0.0273.
To RRIRWRPPRLPRPRPRPGLCPRP belongs 0.412; to RRIRSRPPRLPRPRPRPGYDPRP, -0.125; to RRIRFRPPRLPRPRPRPLARPRP, -0.0473.
Consider RRIRSRPPRLPRPRPRPDTIPRP, for which the “shrunken log2 fold change” value is -1.3.
To RRIRMRPPRLPRPRPRPNMKPRP belongs 0.0548; to RRIRERPPRLPRPRPRPCSRPRP, -0.00322; to RRIRMRPPRLPRPRPRPDYSPRP, -0.0167.
Regarding RRIRSRPPRLPRPRPRPKFRPRP, the “shrunken log2 fold change” value was -0.183.
The figure for RRIRVRPPRLPRPRPRPHPTPRP is 0.23.
The figure for RRIRVRPPRLPRPRPRPMIMPRP is -0.126.
To RRIRDRPPRLPRPRPRPYMDPRP belongs -0.393; to RRIRDRPPRLPRPRPRPSNVPRP, -0.0805.
In the case of RRIRERPPRLPRPRPRPPGHPRP, the “shrunken log2 fold change” value was -0.0333.
With RRIRHRPPRLPRPRPRPIHQPRP, the “shrunken log2 fold change” value was -0.441.
For the sequence RRIRCRPPRLPRPRPRPGAHPRP, the “shrunken log2 fold change” value was 0.0157.
The figure for RRIRCRPPRLPRPRPRPHNVPRP is -0.194; for RRIRGRPPRLPRPRPRPKYLPRP it is 0.32.
Consider RRIRIRPPRLPRPRPRPLMTPRP, for which the “shrunken log2 fold change” value is -0.233.
As to RRIRTRPPRLPRPRPRPLPGPRP, the “shrunken log2 fold change” value is 0.164.
Regarding RRIRIRPPRLPRPRPRPQSPPRP, the “shrunken log2 fold change” value is 0.0218.
The figure for RRIRRRPPRLPRPRPRPDLGPRP is 0.104; for RRIRRRPPRLPRPRPRPGNAPRP it is 0.304; for RRIRARPPRLPRPRPRPWWGPRP it is 3.62.
RRIRGRPPRLPRPRPRPNSGPRP: the “shrunken log2 fold change” value was determined as 0.00625.
The figure for RRIRIRPPRLPRPRPRPANLPRP is -0.584; for RRIRDRPPRLPRPRPRPPEIPRP it is 0.487; for RRIRFRPPRLPRPRPRPGRVPRP it is 0.787.
Regarding RRIRTRPPRLPRPRPRPNAQPRP, the “shrunken log2 fold change” value turned out to be 0.5.
Take RRIRPRPPRLPRPRPRPSGRPRP: the “shrunken log2 fold change” value is 0.0933.
Take RRIRQRPPRLPRPRPRPGGKPRP: the “shrunken log2 fold change” value is -0.0313.
RRIRARPPRLPRPRPRPSRDPRP: the “shrunken log2 fold change” value stood at 0.199.
As for RRIRYRPPRLPRPRPRPDSAPRP, the “shrunken log2 fold change” value was -0.378.
To RRIRQRPPRLPRPRPRPTSWPRP belongs -0.00172; to RRIRYRPPRLPRPRPRPVFCPRP, -0.419.
In the case of RRIRTRPPRLPRPRPRPEQWPRP, the “shrunken log2 fold change” value is -0.0581.
Regarding RRIRNRPPRLPRPRPRPSEMPRP, the “shrunken log2 fold change” value is -0.0844.
As for RRIRIRPPRLPRPRPRPVGWPRP, the “shrunken log2 fold change” value was 0.668.
To RRIRLRPPRLPRPRPRPFSQPRP belongs -0.0811.
In the case of RRIRGRPPRLPRPRPRPWGDPRP, the “shrunken log2 fold change” value came to 0.41.
As for RRIRLRPPRLPRPRPRPANMPRP, the “shrunken log2 fold change” value is -0.0319.
As for RRIRWRPPRLPRPRPRPSRYPRP, the “shrunken log2 fold change” value was -0.483.
To RRIRWRPPRLPRPRPRPIDLPRP belongs 0.0151; to RRIRYRPPRLPRPRPRPGHAPRP, 3.02; to RRIRTRPPRLPRPRPRPTHYPRP, 0.282.
The figure for RRIRRRPPRLPRPRPRPPLEPRP is 0.739; for RRIRIRPPRLPRPRPRPMRHPRP it is 0.158.
In the case of RRIRHRPPRLPRPRPRPASVPRP, the “shrunken log2 fold change” value was -0.00985.
Regarding RRIRDRPPRLPRPRPRPYHLPRP, the “shrunken log2 fold change” value was -0.0628.
Turning to RRIRLRPPRLPRPRPRPAEWPRP, the “shrunken log2 fold change” value was determined as 0.0143.
As for RRIRGRPPRLPRPRPRPHMSPRP, the “shrunken log2 fold change” value was 1.32.
To RRIRERPPRLPRPRPRPDVLPRP belongs -0.138.
The figure for RRIRARPPRLPRPRPRPIRPPRP is 0.237; for RRIRLRPPRLPRPRPRPQPNPRP it is -0.00696.
To RRIRCRPPRLPRPRPRPMFYPRP belongs -0.525; to RRIRKRPPRLPRPRPRPVEAPRP, 0.657; to RRIRNRPPRLPRPRPRPHIMPRP, -0.122.
As to RRIRGRPPRLPRPRPRPHWTPRP, the “shrunken log2 fold change” value was found to be 0.00915.
To RRIRARPPRLPRPRPRPRKNPRP belongs 0.472.
RRIRWRPPRLPRPRPRPKPSPRP: the “shrunken log2 fold change” value was 0.512.
The figure for RRIRQRPPRLPRPRPRPMPPPRP is 0.517; for RRIRQRPPRLPRPRPRPSAMPRP it is 0.218.
On to RRIRTRPPRLPRPRPRPTKSPRP, for which the “shrunken log2 fold change” value came to 0.0353.
Turning to RRIRDRPPRLPRPRPRPWNNPRP, the “shrunken log2 fold change” value was -0.0248.
On to RRIRCRPPRLPRPRPRPHSCPRP, for which the “shrunken log2 fold change” value is -0.132.
To RRIRFRPPRLPRPRPRPAWIPRP belongs -0.106; to RRIRRRPPRLPRPRPRPVIWPRP, 0.185.
To RRIRFRPPRLPRPRPRPAADPRP belongs 0.0709; to RRIRLRPPRLPRPRPRPCPYPRP, 0.0232; to RRIRRRPPRLPRPRPRPIIYPRP, -0.0798.
As for RRIRVRPPRLPRPRPRPECFPRP, the “shrunken log2 fold change” value was 0.195.
On to RRIRARPPRLPRPRPRPIVLPRP, for which the “shrunken log2 fold change” value was -0.121.
To RRIRHRPPRLPRPRPRPHLYPRP belongs -0.24.
To RRIRNRPPRLPRPRPRPAWCPRP belongs 0.0129.
The figure for RRIRPRPPRLPRPRPRPVQYPRP is -0.0191.
In the case of RRIRERPPRLPRPRPRPGCSPRP, the “shrunken log2 fold change” value is -0.0673.
The figure for RRIRKRPPRLPRPRPRPSLPPRP is -0.0153.
RRIRNRPPRLPRPRPRPPIFPRP: the “shrunken log2 fold change” value is 0.0391.
To RRIRYRPPRLPRPRPRPAPDPRP belongs 0.307; to RRIRARPPRLPRPRPRPQMEPRP, -0.154; to RRIRERPPRLPRPRPRPFRGPRP, -0.11.
Turning to RRIRTRPPRLPRPRPRPLCPPRP, the “shrunken log2 fold change” value is -0.165.
For RRIRYRPPRLPRPRPRPLRHPRP, the “shrunken log2 fold change” value is -0.177.
To RRIRARPPRLPRPRPRPHKKPRP belongs -0.163; to RRIRWRPPRLPRPRPRPFFRPRP, 0.33; to RRIRWRPPRLPRPRPRPNFTPRP, -0.0319.
The figure for RRIRFRPPRLPRPRPRPYTIPRP is 0.0439.
Regarding RRIRARPPRLPRPRPRPPVSPRP, the “shrunken log2 fold change” value is 0.554.
To RRIRKRPPRLPRPRPRPTFTPRP belongs 0.186; to RRIRQRPPRLPRPRPRPMYKPRP, -0.0194; to RRIRARPPRLPRPRPRPMHNPRP, -0.00444.
As to RRIRARPPRLPRPRPRPELFPRP, the “shrunken log2 fold change” value is 0.7.
The figure for RRIRRRPPRLPRPRPRPFTPPRP is -0.0158.
